Assay results taken from patent US20230235013A1 (MABSOLVE, published 2023).
Where a chain is given by its changes, count along the chain named. Names and notes keep the numbering of the source.

T1: human FcγRIIA (R131, Sino Biological Cat. No. 10374-H08H) (human, UniProt P12318 34-218)
T1 construct: bought; also called human FcγRIIa R131 allele; FcγRII allele R131
T1 sequence (looked up): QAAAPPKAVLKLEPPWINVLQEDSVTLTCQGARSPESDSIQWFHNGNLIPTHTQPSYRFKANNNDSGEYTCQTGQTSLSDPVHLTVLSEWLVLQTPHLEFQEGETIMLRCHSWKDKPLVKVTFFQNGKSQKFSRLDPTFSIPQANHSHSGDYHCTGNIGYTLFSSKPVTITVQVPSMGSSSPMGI

T2: mouse FcγRI (Sino Biological Cat. No. 50086-M08H) (mouse, UniProt P26151 25-297)
T2 construct: bought
T2 sequence (looked up): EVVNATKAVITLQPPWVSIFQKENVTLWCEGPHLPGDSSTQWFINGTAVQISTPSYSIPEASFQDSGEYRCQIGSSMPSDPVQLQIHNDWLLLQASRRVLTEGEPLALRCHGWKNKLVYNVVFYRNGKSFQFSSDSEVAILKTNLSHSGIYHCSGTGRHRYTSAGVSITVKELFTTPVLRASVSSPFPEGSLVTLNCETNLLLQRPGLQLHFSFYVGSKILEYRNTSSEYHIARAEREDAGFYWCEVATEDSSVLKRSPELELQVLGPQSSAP

T3: human FcγRIIB (Sino Biological Cat. No. 10259-H08H) (human, UniProt P31994 43-217)
T3 construct: bought
T3 sequence (looked up): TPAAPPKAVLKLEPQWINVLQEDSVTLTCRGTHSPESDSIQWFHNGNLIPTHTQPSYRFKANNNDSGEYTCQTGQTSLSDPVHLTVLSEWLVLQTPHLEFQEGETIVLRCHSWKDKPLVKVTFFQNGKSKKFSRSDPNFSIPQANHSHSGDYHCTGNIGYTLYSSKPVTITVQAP

B1: anti-CD20 human IgG1 L234S/L235T (antibody)
heavy: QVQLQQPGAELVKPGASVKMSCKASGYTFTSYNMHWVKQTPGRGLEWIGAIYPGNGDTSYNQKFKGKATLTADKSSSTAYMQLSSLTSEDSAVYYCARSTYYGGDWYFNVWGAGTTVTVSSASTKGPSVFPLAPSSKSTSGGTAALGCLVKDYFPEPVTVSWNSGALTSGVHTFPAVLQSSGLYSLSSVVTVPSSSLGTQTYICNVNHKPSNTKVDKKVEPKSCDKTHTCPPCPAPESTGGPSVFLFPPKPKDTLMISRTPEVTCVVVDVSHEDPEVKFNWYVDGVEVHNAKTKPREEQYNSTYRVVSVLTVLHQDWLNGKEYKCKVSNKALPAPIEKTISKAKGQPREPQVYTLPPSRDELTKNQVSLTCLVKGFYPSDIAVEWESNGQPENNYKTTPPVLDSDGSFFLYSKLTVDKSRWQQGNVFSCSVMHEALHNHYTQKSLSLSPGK
light: QIVLSQSPAILSASPGEKVTMTCRASSSVSYIHWFQQKPGSSPKPWIYATSNLASGVPVRFSGSGSGTSYSLTISRVEAEDAATYYCQQWTSNPPTFGGGTKLEIKRTVAAPSVFIFPPSDEQLKSGTASVVCLLNNFYPREAKVQWKVDNALQSGNSQESVTEQDSKDSTYSLSSTLTLSKADYEKHKVYACEVTHQGLSSPVTKSFNRGEC
notes: also called 2-87
B2: anti-CD20 human IgG1 L235T/G236R (antibody)
heavy: not shown
light: B1 light
notes: also called 2-86
B3: anti-CD52 human IgG1 L234S/L235T/G236R (antibody)
heavy: QVQLQESGPGLVRPSQTLSLTCTVSGFTFTDFYMNWVRQPPGRGLEWIGFIRDKAKGYTTEYNPSVKGRVTMLVDTSKNQFSLRLSSVTAADTAVYYCAREGHTAAPFDYWGQGSLVTVSSASTKGPSVFPLAPSSKSTSGGTAALGCLVKDYFPEPVTVSWNSGALTSGVHTFPAVLQSSGLYSLSSVVTVPSSSLGTQTYICNVNHKPSNTKVDKKVEPKSCDKTHTCPPCPAPESTRGPSVFLFPPKPKDTLMISRTPEVTCVVVDVSHEDPEVKFNWYVDGVEVHNAKTKPREEQYNSTYRVVSVLTVLHQDWLNGKEYKCKVSNKALPAPIEKTISKAKGQPREPQVYTLPPSRDELTKNQVSLTCLVKGFYPSDIAVEWESNGQPENNYKTTPPVLDSDGSFFLYSKLTVDKSRWQQGNVFSCSVMHEALHNHYTQKSLSLSPGK
light: not shown
notes: also called 4-52; copies: 2 + 2
B4: anti-CD52 human IgG1 L234G/L235S/G236R (antibody)
heavy: B3 heavy with S238G, T239S
light: not shown
notes: also called 4-19; copies: 2 + 2
B5: anti-CD52 human IgG1 L234S/L235V/G236R (antibody)
heavy: B3 heavy with T239V
light: not shown
notes: also called 4-53; copies: 2 + 2
B6: anti-CD52 human IgG1 L234T/L235Q/G236R (antibody)
heavy: B3 heavy with S238T, T239Q
light: not shown
notes: also called 4-60; copies: 2 + 2
B7: anti-CD52 human IgG1 L234T/L235T/G236R (antibody)
heavy: B3 heavy with S238T
light: not shown
notes: also called 4-63; copies: 2 + 2
B8: anti-CD3 human IgG1 L234S/L235T/G236R (antibody)
heavy: not shown
light: QIVLTQSPAIMSASPGEKVTMTCSASSSVSYMNWYQQKSGTSPKRWIYDTSKLASGVPAHFRGSGSGTSYSLTISGMEAEDAATYYCQQWSSNPFTFGSGTKLEIKRTVAAPSVFIFPPSDEQLKSGTASVVCLLNNFYPREAKVQWKVDNALQSGNSQESVTEQDSKDSTYSLSSTLTLSKADYEKHKVYACEVTHQGLSSPVTKSFNRGEC
notes: also called 3-52; copies: 2 + 2
B9: anti-CD3 human IgG1 L234T/L235Q/G236R (antibody)
heavy: not shown
light: B8 light
notes: also called 3-60; copies: 2 + 2
B10: anti-CD3 human IgG1 L234S/L235V/G236R (antibody)
heavy: not shown
light: B8 light
notes: also called 3-53; copies: 2 + 2
B11: anti-CD3 human IgG1 L234G/L235S/G236R (antibody)
heavy: not shown
light: B8 light
notes: also called 3-19; copies: 2 + 2
B12: anti-CD3 human IgG1 L234T/L235T/G236R (antibody)
heavy: not shown
light: B8 light
notes: also called 3-63; copies: 2 + 2
B13: anti-CD3 human IgG1 N297Q (aglycosyl) (antibody)
heavy: not shown
light: B8 light
notes: also called 3-67; copies: 2 + 2
B14: anti-CD3 human IgG1 L234A/L235A (LALA) (antibody)
heavy: not shown
light: B8 light
notes: also called 3-65; copies: 2 + 2
B15: anti-CD3 (muromonab variable regions) human IgG1 wild type reference (antibody)
heavy: not shown
light: B8 light
notes: also called 3-1; wild-type CD3 antibody

These binders were tested against T4, Histidine-tagged recombinant human FcγRI (CD64) (human, UniProt P12314 16-288, limits assumed) (assay: SPR, His-FcγRI captured; Expt 1 Rep 2;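 note: antibody analyte injected at 100 µg/mL for 1 min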).
T4 construct: bought
In the case of B1, the “Corrected response (RU)” value is reported as 54.1 RU. B2 was tested, and the “Corrected response (RU)” value was -10.6 RU.

Each binder was assayed against T5, human FcγRIIIA (F158, Sino Biological Cat. No. 10389-H08H) (human, UniProt P08637 17-208) (assay: SPR, captured His-receptor).
T5 construct: bought; also called human FcγRIIIa F158 allele
T5 sequence (P08637 17-208 limits assumed): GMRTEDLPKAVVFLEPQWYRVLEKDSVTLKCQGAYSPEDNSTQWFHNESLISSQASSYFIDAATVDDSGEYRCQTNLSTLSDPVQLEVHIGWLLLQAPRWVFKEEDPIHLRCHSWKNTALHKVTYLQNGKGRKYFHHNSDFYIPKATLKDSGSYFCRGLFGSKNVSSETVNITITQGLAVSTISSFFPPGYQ
B3: no binding (tested: 100 µg/mL). B4: no binding (tested: 100 µg/mL). B5: no binding (tested: 100 µg/mL). B6: no binding (tested: 100 µg/mL). B7: no binding (tested: 100 µg/mL).

The binders below were run against T6, human FcγRIIIB (NA2 allotype, Sino Biological Cat. No. 11046-H08H) (human, UniProt O75015 17-200) (assay: SPR, captured His-receptor).
T6 construct: bought; also called human FcγRIIIb NA2 allele
B8: no binding (tested: 100 µg/mL). B9: no binding (tested: 100 µg/mL). B10: no binding (tested: 100 µg/mL). B11: no binding (tested: 100 µg/mL). B12: no binding (tested: 100 µg/mL). B3: no binding (tested: 100 µg/mL). B4: no binding (tested: 100 µg/mL). B5: no binding (tested: 100 µg/mL). B6: no binding (tested: 100 µg/mL). B7: no binding (tested: 100 µg/mL).

Each binder was assayed against human FcγRIIIa V158 allele (human, UniProt P08637 17-208, limits assumed) (assay: SPR, captured His-receptor).
Chain of human FcγRIIIa V158 allele (P08637 17-208 F176V limits assumed): as the sequence (P08637 17-208 limits assumed) above, with F160V counted along it
B3: no binding (tested: 100 µg/mL). B4: no binding (tested: 100 µg/mL). B5: no binding (tested: 100 µg/mL). B6: no binding (tested: 100 µg/mL). B7: no binding (tested: 100 µg/mL).

The binders below were run against T7, Histidine-tagged recombinant human FcγRI (CD64) (human, UniProt P12314 16-288) (assay: SPR, captured His-receptor).
T7 construct: bought; also called Sino Biological Cat. No. 12056-H08H
B8: no binding (tested: 100 µg/mL). B13: binds. B9: no binding (tested: 100 µg/mL). B14: binds. B10: no binding (tested: 100 µg/mL). B11: no binding (tested: 100 µg/mL). B12: no binding (tested: 100 µg/mL). B3: no binding (tested: 100 µg/mL). B4: no binding (tested: 100 µg/mL). B5: no binding (tested: 100 µg/mL). B6: no binding (tested: 100 µg/mL). B7: no binding (tested: 100 µg/mL).

The binders below were run against T1, human FcγRIIA (R131, Sino Biological …) (assay: SPR, captured His-receptor).
B8: no binding (tested: 100 µg/mL). B9: no binding (tested: 100 µg/mL). B14: binds. B10: no binding (tested: 100 µg/mL). B11: no binding (tested: 100 µg/mL). B12: no binding (tested: 100 µg/mL). B3: no binding (tested: 100 µg/mL). B4: no binding (tested: 100 µg/mL). B5: no binding (tested: 100 µg/mL). B6: no binding (tested: 100 µg/mL). B7: no binding (tested: 100 µg/mL).

Each binder was assayed against T2, mouse FcγRI (Sino Biological Cat. No. …) (assay: SPR, captured His-receptor).
B8: no binding (tested: 100 µg/mL). B13: binds. B9: no binding (tested: 100 µg/mL). B10: no binding (tested: 100 µg/mL). B11: no binding (tested: 100 µg/mL). B12: no binding (tested: 100 µg/mL). B3: no binding (tested: 100 µg/mL). B4: no binding (tested: 100 µg/mL). B5: no binding (tested: 100 µg/mL). B6: no binding (tested: 100 µg/mL). B7: no binding (tested: 100 µg/mL).

These binders were tested against T3, human FcγRIIB (Sino Biological Cat. No. …) (assay: SPR, captured His-receptor).
B8: no binding (tested: 100 µg/mL). B9: no binding (tested: 100 µg/mL). B10: no binding (tested: 100 µg/mL). B11: no binding (tested: 100 µg/mL). B12: no binding (tested: 100 µg/mL). B3: no binding (tested: 100 µg/mL). B4: no binding (tested: 100 µg/mL). B5: no binding (tested: 100 µg/mL). B6: no binding (tested: 100 µg/mL). B7: no binding (tested: 100 µg/mL).

What follows are binders tested against T4, Histidine-tagged recombinant human … (assay: SPR, His-FcγRI captured; Expt 1 Rep 1;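 note: antibody analyte injected at 100 µg/mL for 1 min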).
In the case of B1, the “Corrected response (RU)” value is reported as 62.9 RU. B2 was tested, and the “Corrected response (RU)” value was -9.4 RU.

The binders below were run against T8, CD3D/CD3E heterodimer (Sino Biologicals Cat. No. CT038-H2508H) (human, UniProt P04234 22-105; P07766 23-126) (assay: ELISA, antigen coated, antibody 5 µg/mL).
T8 construct: bought; also called CD3 antigen; human CD3
In the case of B15, the “Mean Absorbance” value is reported as 1.01 absorbance. For B8, the “Mean Absorbance” value was 1.38 absorbance. For B13, the “Mean Absorbance” value was 0.749 absorbance. For B9, the “Mean Absorbance” value was 1.33 absorbance. In the case of B14, the “Mean Absorbance” value is reported as 1.07 absorbance. For B10, the “Mean Absorbance” value was 1.25 absorbance. With B11 the “Mean Absorbance” value was 1.24 absorbance. With B12 the “Mean Absorbance” value was 1.04 absorbance.

The binders below were run against T9, Sheep Fc-CD52 fusion protein (Absolute Antibody Cat. No. PR00205) (human, UniProt P31358 25-36) (assay: ELISA, antigen coated, antibody 5 µg/mL).
T9 construct: bought; also called CD52 antigen; human CD52; not shown: sheep Fc
For B15, the “Mean Absorbance” value was 0.006 absorbance. For B3, the “Mean Absorbance” value was 1.44 absorbance. B4 was tested, and the “Mean Absorbance” value was 1.13 absorbance. For B5, the “Mean Absorbance” value was 1.23 absorbance. With B6 the “Mean Absorbance” value was 1.35 absorbance. B7 was tested, and the “Mean Absorbance” value was 1.48 absorbance.

What follows are binders tested against T4, Histidine-tagged recombinant human … (assay: SPR, His-FcγRI captured; Expt 2 Rep 2;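 note: antibody analyte injected at 100 µg/mL for 1 min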).
B1 was tested, and the “Corrected response (RU)” value was 62.4 RU. With B2 the “Corrected response (RU)” value was 0 RU.
